Assay results taken from patent US9862971B2 (BUNDESREPUBLIK DEUTSCHLAND, LETZTVERTRETEN DURCH DEN …, dated 2018).

Columns and labels:
Test in all cases: cell-based or functional assay
CD46 [1] = target: T1, CD46 (human, UniProt P15529)
EGF-receptor = EGF-receptor (Homo sapiens (Human), UniProt P00533)
CD46 [2] = target: T1, CD46; remark: listed apart in the source
Human SLAM (signaling …) = target: T2, Human SLAM (signaling lymphocyte-activation molecule) (human, UniProt Q13291)
T2 sequence: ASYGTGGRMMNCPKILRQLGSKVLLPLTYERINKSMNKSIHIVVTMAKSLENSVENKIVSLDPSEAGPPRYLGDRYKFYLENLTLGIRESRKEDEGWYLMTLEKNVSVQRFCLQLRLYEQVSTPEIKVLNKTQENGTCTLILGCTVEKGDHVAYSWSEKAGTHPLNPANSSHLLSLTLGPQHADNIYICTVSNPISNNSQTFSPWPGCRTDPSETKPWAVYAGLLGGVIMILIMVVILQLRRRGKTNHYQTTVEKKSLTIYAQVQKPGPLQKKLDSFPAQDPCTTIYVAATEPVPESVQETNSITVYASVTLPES

human CD20 = human CD20 (human, UniProt P11836)
CD46 [3] = target: T1, CD46; remark: listed apart in the source

B1: HcΔ24 (other)
chain: MNREHLMIDRPYVLLAVLFVMFLSLIGLLAIAGIRLHRAAIYTAEIHKSLSTNLDVTNSIEHQVKDVLTPLFKIIGDEVGLRTPQRFTDLVKFISDKIKFLNPDREYDFRDLTWCINPPERIKLDYDQYCADVAAEELMNALVNSTLLETRTTNQFLAVSKGNCSGPTTIRGQFSNMSLSLLDLYLGRGYNVSSIVTMTSQGMYGGTYLVEKPNLSSKRSELSQLSMYRVFEVGVIRNPGLGAPVFHMTNYLEQPVSNDLSNCMVALGELKLAALCHGEDSITIPYQGSGKGVSFQLVKLGVWKSPTDMQSWVPLSTDDPVIDRLYLSSHRGVIADNQAKWAVPTTRTDDKLRMETCFQQACKGKIQALCENPEWAPLKDNRIPSYGVLSVDLSLTVELKIKIASGFGPLITHGSGMDLYKSNHNNVYWLTIPPMKNLALGVINTLEWIPRFKVSPYLFTVPIKEAGGDCHAPTYLPAEVDGDVKLSSNLVILPGQDLQYVLATYDTSRVEHAVVYYVYSPSRSFSYFYPFRLPIKGVPIELQVECFTWDQKLWCRHFCVLADSESGGHITHSGMVGMGVSCTVTREDGTNRR
titer [t.u./ml] of HIV-1 vector particles on HT1080 cells, not concentrated supernatant (CD46 [1]): 88 t.u./ml

B2: HmutEGFΔ19 (other)
chain: MSRIVINREHLMIDRPYVLLAVLFVMFLSLIGLLAIAGIRLHRAAIYTAEIHKSLSTNLDVTNSIEHQVKDVLTPLFKIIGDEVGLRTPQRFTDLVKFISDKIKFLNPDREYDFRDLTWCINPPERIKLDYDQYCADVAAEELMNALVNSTLLETRTTNQFLAVSKGNCSGPTTIRGQFSNMSLSLLDLYLGRGYNVSSIVTMTSQGMYGGTYLVEKPNLSSKRSELSQLSMYRVFEVGVIRNPGLGAPVFHMTNYLEQPVSNDLSNCMVALGELKLAALCHGEDSITIPYQGSGKGVSFQLVKLGVWKSPTDMQSWVPLSTDDPVIDRLYLSSHRGVIADNQAKWAVPTTRTDDKLRMETCFQQACKGKIQALCENPEWAPLKDNRIPSYGVLSVDLSLTVELKIKIASGFGPLITHGSGMDLYKSNHNNVYWLTIPPMKNLALGVINTLEWIPRFKVSPALFTVPIKEAGGDCHAPTYLPAEVDGDVKLSSNLVILPGQDLQYVLATYDTSAVEHAVVYYVYSPSRLSSYFYPFRLPIKGVPIELQVECFTWDQKLWCRHFCVLADSESGGHITHSGMVGMGVSCTVTREDGTNAAQPAMANSDSECPLSHDGYCLHDGVCMYIEALDKYACNCVVGYIGERCQYRDLKWWELRAAARGSHHHHHH
titer [t.u./ml] of HIV-1 vector particles on A-431 cells, concentrated supernatant (EGF-receptor): 22000 t.u./ml
titer [t.u./ml] of HIV-1 vector particles on CHO-BC1 cells, concentrated supernatant (CD46 [2]): 0 t.u./ml
titer [t.u./ml] of HIV-1 vector particles on CHO-hSLAM cells, concentrated supernatant (Human SLAM (signaling …)): 160 t.u./ml

B3: HmutEGFΔ18 (other)
chain: MGSRIVINREHLMIDRPYVLLAVLFVMFLSLIGLLAIAGIRLHRAAIYTAEIHKSLSTNLDVTNSIEHQVKDVLTPLFKIIGDEVGLRTPQRFTDLVKFISDKIKFLNPDREYDFRDLTWCINPPERIKLDYDQYCADVAAEELMNALVNSTLLETRTTNQFLAVSKGNCSGPTTIRGQFSNMSLSLLDLYLGRGYNVSSIVTMTSQGMYGGTYLVEKPNLSSKRSELSQLSMYRVFEVGVIRNPGLGAPVFHMTNYLEQPVSNDLSNCMVALGELKLAALCHGEDSITIPYQGSGKGVSFQLVKLGVWKSPTDMQSWVPLSTDDPVIDRLYLSSHRGVIADNQAKWAVPTTRTDDKLRMETCFQQACKGKIQALCENPEWAPLKDNRIPSYGVLSVDLSLTVELKIKIASGFGPLITHGSGMDLYKSNHNNVYWLTIPPMKNLALGVINTLEWIPRFKVSPALFTVPIKEAGGDCHAPTYLPAEVDGDVKLSSNLVILPGQDLQYVLATYDTSAVEHAVVYYVYSPSRLSSYFYPFRLPIKGVPIELQVECFTWDQKLWCRHFCVLADSESGGHITHSGMVGMGVSCTVTREDGTNAAQPAMANSDSECPLSHDGYCLHDGVCMYIEALDKYACNCVVGYIGERCQYRDLKWWELRAAARGSHHHHHH
titer [t.u./ml] of HIV-1 vector particles on A-431 cells, concentrated supernatant (EGF-receptor): 270000 t.u./ml
titer [t.u./ml] of HIV-1 vector particles on CHO-BC1 cells, concentrated supernatant (CD46 [2]): 0 t.u./ml
titer [t.u./ml] of HIV-1 vector particles on CHO-hSLAM cells, concentrated supernatant (Human SLAM (signaling …)): 280 t.u./ml

B4: HcΔ21 (other)
chain: MIVINREHLMIDRPYVLLAVLFVMFLSLIGLLAIAGIRLHRAAIYTAEIHKSLSTNLDVTNSIEHQVKDVLTPLFKIIGDEVGLRTPQRFTDLVKFISDKIKFLNPDREYDFRDLTWCINPPERIKLDYDQYCADVAAEELMNALVNSTLLETRTTNQFLAVSKGNCSGPTTIRGQFSNMSLSLLDLYLGRGYNVSSIVTMTSQGMYGGTYLVEKPNLSSKRSELSQLSMYRVFEVGVIRNPGLGAPVFHMTNYLEQPVSNDLSNCMVALGELKLAALCHGEDSITIPYQGSGKGVSFQLVKLGVWKSPTDMQSWVPLSTDDPVIDRLYLSSHRGVIADNQAKWAVPTTRTDDKLRMETCFQQACKGKIQALCENPEWAPLKDNRIPSYGVLSVDLSLTVELKIKIASGFGPLITHGSGMDLYKSNHNNVYWLTIPPMKNLALGVINTLEWIPRFKVSPYLFTVPIKEAGGDCHAPTYLPAEVDGDVKLSSNLVILPGQDLQYVLATYDTSRVEHAVVYYVYSPSRSFSYFYPFRLPIKGVPIELQVECFTWDQKLWCRHFCVLADSESGGHITHSGMVGMGVSCTVTREDGTNRR
titer [t.u./ml] of HIV-1 vector particles on HT1080 cells, not concentrated supernatant (CD46 [1]): 1500 t.u./ml

B5: HcΔ23 (other)
chain: MINREHLMIDRPYVLLAVLFVMFLSLIGLLAIAGIRLHRAAIYTAEIHKSLSTNLDVTNSIEHQVKDVLTPLFKIIGDEVGLRTPQRFTDLVKFISDKIKFLNPDREYDFRDLTWCINPPERIKLDYDQYCADVAAEELMNALVNSTLLETRTTNQFLAVSKGNCSGPTTIRGQFSNMSLSLLDLYLGRGYNVSSIVTMTSQGMYGGTYLVEKPNLSSKRSELSQLSMYRVFEVGVIRNPGLGAPVFHMTNYLEQPVSNDLSNCMVALGELKLAALCHGEDSITIPYQGSGKGVSFQLVKLGVWKSPTDMQSWVPLSTDDPVIDRLYLSSHRGVIADNQAKWAVPTTRTDDKLRMETCFQQACKGKIQALCENPEWAPLKDNRIPSYGVLSVDLSLTVELKIKIASGFGPLITHGSGMDLYKSNHNNVYWLTIPPMKNLALGVINTLEWIPRFKVSPYLFTVPIKEAGGDCHAPTYLPAEVDGDVKLSSNLVILPGQDLQYVLATYDTSRVEHAVVYYVYSPSRSFSYFYPFRLPIKGVPIELQVECFTWDQKLWCRHFCVLADSESGGHITHSGMVGMGVSCTVTREDGTNRR
titer [t.u./ml] of HIV-1 vector particles on HT1080 cells, not concentrated supernatant (CD46 [1]): 130 t.u./ml

B6: HmutscFvCD20Δ19 (other)
chain: MSRIVINREHLMIDRPYVLLAVLFVMFLSLIGLLAIAGIRLHRAAIYTAEIHKSLSTNLDVTNSIEHQVKDVLTPLFKIIGDEVGLRTPQRFTDLVKFISDKIKFLNPDREYDFRDLTWCINPPERIKLDYDQYCADVAAEELMNALVNSTLLETRTTNQFLAVSKGNCSGPTTIRGQFSNMSLSLLDLYLGRGYNVSSIVTMTSQGMYGGTYLVEKPNLSSKRSELSQLSMYRVFEVGVIRNPGLGAPVFHMTNYLEQPVSNDLSNCMVALGELKLAALCHGEDSITIPYQGSGKGVSFQLVKLGVWKSPTDMQSWVPLSTDDPVIDRLYLSSHRGVIADNQAKWAVPTTRTDDKLRMETCFQQACKGKIQALCENPEWAPLKDNRIPSYGVLSVDLSLTVELKIKIASGFGPLITHGSGMDLYKSNHNNVYWLTIPPMKNLALGVINTLEWIPRFKVSPALFTVPIKEAGGDCHAPTYLPAEVDGDVKLSSNLVILPGQDLQYVLATYDTSAVEHAVVYYVYSPSRLSSYFYPFRLPIKGVPIELQVECFTWDQKLWCRHFCVLADSESGGHITHSGMVGMGVSCTVTREDGTNAAQPAIEGRMAQVQLVQSGAELVKPGASVKMSCKASGYTFTSYNMHWVKQTPGQGLEWIGAIYPGNGDTSYNQKFKGKATLTADKSSSTAYMQLSSLTSEDSAVYYCARAQLRPNYWYFDVWGAGTTVTVSKISGGGGSGGGGSGGGGSGGSSDIVLSQSPAILSASPGEKVTMTCRASSSVSYMHWYQQKPGSSPKPWIYATSNLASGVPARFSGSGSGTSYSLTISRVEAEDAATYYCQQWISNPPTFGAGTKLELKAAARGSHHHHHH
titer [t.u./ml] of HIV-1 vector particles on HT1080-CD20 cells, concentrated supernatant (human CD20): 1.32e+06 t.u./ml

B7: HcΔ22 (other)
chain: MVINREHLMIDRPYVLLAVLFVMFLSLIGLLAIAGIRLHRAAIYTAEIHKSLSTNLDVTNSIEHQVKDVLTPLFKIIGDEVGLRTPQRFTDLVKFISDKIKFLNPDREYDFRDLTWCINPPERIKLDYDQYCADVAAEELMNALVNSTLLETRTTNQFLAVSKGNCSGPTTIRGQFSNMSLSLLDLYLGRGYNVSSIVTMTSQGMYGGTYLVEKPNLSSKRSELSQLSMYRVFEVGVIRNPGLGAPVFHMTNYLEQPVSNDLSNCMVALGELKLAALCHGEDSITIPYQGSGKGVSFQLVKLGVWKSPTDMQSWVPLSTDDPVIDRLYLSSHRGVIADNQAKWAVPTTRTDDKLRMETCFQQACKGKIQALCENPEWAPLKDNRIPSYGVLSVDLSLTVELKIKIASGFGPLITHGSGMDLYKSNHNNVYWLTIPPMKNLALGVINTLEWIPRFKVSPYLFTVPIKEAGGDCHAPTYLPAEVDGDVKLSSNLVILPGQDLQYVLATYDTSRVEHAVVYYVYSPSRSFSYFYPFRLPIKGVPIELQVECFTWDQKLWCRHFCVLADSESGGHITHSGMVGMGVSCTVTREDGTNRR
titer [t.u./ml] of HIV-1 vector particles on HT1080 cells, not concentrated supernatant (CD46 [1]): 140 t.u./ml

B8: HcΔ24+4A (other)
chain: MAAAANREHLMIDRPYVLLAVLFVMFLSLIGLLAIAGIRLHRAAIYTAEIHKSLSTNLDVTNSIEHQVKDVLTPLFKIIGDEVGLRTPQRFTDLVKFISDKIKFLNPDREYDFRDLTWCINPPERIKLDYDQYCADVAAEELMNALVNSTLLETRTTNQFLAVSKGNCSGPTTIRGQFSNMSLSLLDLYLGRGYNVSSIVTMTSQGMYGGTYLVEKPNLSSKRSELSQLSMYRVFEVGVIRNPGLGAPVFHMTNYLEQPVSNDLSNCMVALGELKLAALCHGEDSITIPYQGSGKGVSFQLVKLGVWKSPTDMQSWVPLSTDDPVIDRLYLSSHRGVIADNQAKWAVPTTRTDDKLRMETCFQQACKGKIQALCENPEWAPLKDNRIPSYGVLSVDLSLTVELKIKIASGFGPLITHGSGMDLYKSNHNNVYWLTIPPMKNLALGVINTLEWIPRFKVSPYLFTVPIKEAGGDCHAPTYLPAEVDGDVKLSSNLVILPGQDLQYVLATYDTSRVEHAVVYYVYSPSRSFSYFYPFRLPIKGVPIELQVECFTWDQKLWCRHFCVLADSESGGHITHSGMVGMGVSCTVTREDGTNRR
titer [t.u./ml] of HIV-1 vector particles on 293T cells, concentrated supernatant (CD46 [3]): 1.6e+06 t.u./ml
titer [t.u./ml] of HIV-1 vector particles on U-87MG cells, concentrated supernatant (CD46 [3]): ≥ 1e+06 t.u./ml
